What is called stoichiometry N is the number of molecules, sites or subunits per partner or assembly.

Experimental findings from paper doi:10.1101/2021.04.27.441613 (bioRxiv, 2021) are described below.

This data set concerns the molecule itself. Put plainly: SEC + other: SDS-PAGE.

B1: dLanYFP (other)
chain: MSLPATHELHIFGSFNGVDFDMVGRGTGNPNDGYEELNLKSTKGALQFSPWILVPQIGYGFHQYLPFPDGMSPFQAAMKDGSGYQVHRTMQFEDGASLTSNYRYTYEGSHIKGEFQVKGTGFPADGPVMTNSLTAADWCVTKMLYPNDKTIISTFDWTYTTGSGKRYQSTVRTTYTFAKPMAANILKNQPMFVFRKTELKHSKTELNFKEWQKAFTDVM
Regarding B1, the “stoichiometry N” value turned out to be 2.
